Data on 9 molecules can be found in article PMC3901395, “Multivalent interactions of the SUMO-interaction motifs in RING finger protein 4 determine the specificity for chains of the SUMO” (Biochemical Journal, 2013).

As usually defined, the Kd is a measure of binding affinity in units of concentration.

Changes are numbered by the printed parent chain.

Assay in all cases: ITC (calorimetric titration)
Conditions in all cases: chain shown with the change

Assay [1] addresses linear di-SUMO2 (2×SUMO2-ΔN11), P61956.
For assay [2], the target named is linear tetra-SUMO2 (4×SUMO2-ΔN11), P61956.
For a further assay, the target named is linear tri-SUMO, P61956.
Chain of linear tri-SUMO, P61956 (P61956 other isoform, or with tags, fused parts or gaps): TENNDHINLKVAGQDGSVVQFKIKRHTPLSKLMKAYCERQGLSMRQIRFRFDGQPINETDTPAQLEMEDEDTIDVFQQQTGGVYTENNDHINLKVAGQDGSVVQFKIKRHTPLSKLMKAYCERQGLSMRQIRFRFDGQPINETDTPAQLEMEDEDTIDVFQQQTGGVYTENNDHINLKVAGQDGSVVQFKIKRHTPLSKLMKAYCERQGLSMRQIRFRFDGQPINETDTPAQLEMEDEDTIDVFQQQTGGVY

Chain of linear di-SUMO2 (2×SUMO2-ΔN11), P61956 (P61956 other isoform, or with tags, fused parts or gaps mutant): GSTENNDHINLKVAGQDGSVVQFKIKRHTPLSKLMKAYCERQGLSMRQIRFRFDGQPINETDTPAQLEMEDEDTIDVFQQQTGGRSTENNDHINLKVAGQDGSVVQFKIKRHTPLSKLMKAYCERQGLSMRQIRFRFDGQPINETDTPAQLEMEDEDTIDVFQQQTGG
Chain of linear tetra-SUMO2 (4×SUMO2-ΔN11), P61956 (P61956 other isoform, or with tags, fused parts or gaps mutant): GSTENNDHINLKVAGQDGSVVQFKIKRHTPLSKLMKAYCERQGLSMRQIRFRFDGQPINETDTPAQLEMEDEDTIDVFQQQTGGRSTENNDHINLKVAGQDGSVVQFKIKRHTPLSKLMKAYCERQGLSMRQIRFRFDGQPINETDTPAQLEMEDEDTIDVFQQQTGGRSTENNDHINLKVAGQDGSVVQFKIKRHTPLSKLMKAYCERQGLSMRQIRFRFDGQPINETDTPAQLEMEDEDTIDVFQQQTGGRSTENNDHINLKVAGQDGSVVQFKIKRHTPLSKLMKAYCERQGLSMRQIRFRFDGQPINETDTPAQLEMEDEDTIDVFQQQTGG

B1: RNF4 1–125 (RNF4-SIM domain, wt), P78317 SIM3/4mut (protein)
chain: MSTRKRRGGAINSRQAQKRTREATSTPEISLEAEPIELVETAGDEIVDLTCESLEPVVAAAAHNDSAAAADERRRPRRNARRLPQDHADSCVVSSDDEELSRDRDVYVTTHTPRNARDEGATGLR
On to B1, for which the figures for the dissociation constant Kd in assay [1] and in assay [2] were 69 µM and 22 µM, respectively.

B2: RNF4 1–125 (RNF4-SIM domain, wt), P78317 SIM2/3mut (protein)
chain: B1 chain with V47A, D48A, L49A, T50A, A67V, A68V, A69I, A70V
As to B2, the values for the Kd in assay [1] and in assay [2] were 110 µM and 48 µM, respectively.

B3: RNF4 1–125 (RNF4-SIM domain, wt), P78317 SIM1/3mut (protein)
chain: B1 chain with I36A, E37A, L38A, V39A, A67V, A68V, A69I, A70V
For the molecule B3, the results for the Kd in assay [1] and in assay [2] were 52 µM and 2.4 µM, respectively.

B4: RNF4 1–125 (RNF4-SIM domain, wt), P78317 SIM3mut (protein)
chain: B1 chain with A67V, A68V, A69I, A70V
Turning to B4, the Kd in assay [1] turned out to be 91 µM; in assay [2] it was 2.2 µM; in the assay with linear tri-SUMO, P61956, 29 µM.

B5: RNF4 1–125 (RNF4-SIM domain, wt), P78317 SIM1/4mut (protein)
chain: B1 chain with I36A, E37A, L38A, V39A, A59V, A60D, A61L, A62T
In assay [2], B5 registered a Kd of 1.3 µM.

B6: RNF4 1–125 (RNF4-SIM domain, wt), P78317 SIM2/4mut (protein)
chain: B1 chain with V47A, D48A, L49A, T50A, A59V, A60D, A61L, A62T
With B6, the figures for the Kd in assay [1] and in assay [2] were 69 µM and 9.4 µM, respectively.

B7: RNF4 1–125 (RNF4-SIM domain, wt), P78317 SIM4mut (protein)
chain: B1 chain with A59V, A60D, A61L, A62T
On to B7, for which the Kd turned out to be 2.8 µM in assay [2] and 20 µM in the assay with linear tri-SUMO, P61956.

B8: RNF4 1–125 (RNF4-SIM domain, wt), P78317 SIM2mut (protein)
chain: MSTRKRRGGAINSRQAQKRTREATSTPEISLEAEPIELVETAGDEIAAAACESLEPVVVDLTHNDSVVIVDERRRPRRNARRLPQDHADSCVVSSDDEELSRDRDVYVTTHTPRNARDEGATGLR
As to B8, the dissociation constant (Kd) in assay [1] is 118 µM; in assay [2], 2.1 µM; in the assay with linear tri-SUMO, P61956 it was 25 µM.

B9: RNF4 1–125 (RNF4-SIM domain, wt), P78317 SIM1/2mut (protein)
chain: B8 chain with I36A, E37A, L38A, V39A
As to B9, in assay [1], the Kd is 56 µM.
